{"source": "patent US20240317871A1", "about": "(IMMUNOMIC THERAPEUTICS, published 2024)", "binders": {"B1": {"name": "Ab_078 (H5S20-45A34A) (antibody, V domains shown)", "VH": "EVQLQQSGAELVRSGASVKLSCAASGFNIKDYYMHWVKQRPEQGLEWIGWIDPENGDTEFAPKFQGKATLTADTSSNTAYLQLSSLTSEDTAVYYCNTRTLGYWGQGTLVTVSA", "VL": "QIVLTQSPALMSASPGEKVTMTCTASSSVSYMYWYQQKPRSSPKPWIYLTSNLASGVPARFSGSGSGTSYSLTISSMEAEDAATYYCQQWSSNPLTFGAGTKLELR", "notes": "also called Ab_78"}, "B2": {"name": "Ab_036 (H5S15-12A13A) (antibody, V domains shown)", "VH": "EVQLQQSGAELVKPGASVKLSCTASGFNIKDTYMHWVKQRPEQGLEWIGRIDPANGNTKFDPKFQGKATITADTSSNTAYLQLSSLTSEDTAVYYCASRGGSSFDYWGQGTTLTVSS", "VL": "DIVLTQSPASLAVSLGQRATISCKASQSVDYDGESYMNWYQQKPGQPPKLLIYAASNLDSGIPARFSGSGSGTDFTLNIHPVEEEDAATYYCQQSNEDPLTFGAGTKLELK", "notes": "also called Ab_36"}, "B3": {"name": "Ab_043 (H5S15-29A24A) (antibody, V domains shown)", "VH": "EVQLQQSGAELVRPGALVKLSCKASGFNIKDDYMHWVKQRPEQGLEWIGWIDPENGNTIYDPKFQGKASITADTSSNTAYLQLSSLTSEDTAVYYCARGYSSSPYWGQGTLVTVSA", "VL": "B2 VL with E34N, G45R, D59E, S67R, L100F, A104S, L110I", "notes": "also called Ab_43"}, "B4": {"name": "Ab_072 (H5S20-15A13A) (antibody, V domains shown)", "VH": "B2 VH with F60Y, S98T, R99S, F104Y", "VL": "not shown", "notes": "also called Ab_72"}, "B5": {"name": "Ab_080 (H5S20-27A23A) (antibody, V domains shown)", "VH": "EVQLQQSGTVLARPGASVKMSCKASGYSFTSYWMHWLKQRPGQGLEWIGAIYPGNSDTVFNQKFKGKAKLTAVTSATTAYMELSSLTNEDSAVYYCTKEPRTIEGAWFTYWGQGTLVTVSA", "VL": "DIVMTQSPSSLTVPAGEKVTMSCKSSQSLLNSENQKNYLTWYQQKPGQPPKLLIYWASTRESGVPDRFTGSGSGTDFTLTISSVQAEDLAVYYCQSDYSYPLTFGAGTKLELK", "notes": "also called Ab_80"}}, "note": "Positions count from the first letter of the chain named.", "data": [{"molecular_target": "T1, murine HVEM (murine, UniProt Q80WM9 39-206, limits assumed)", "T1 construct": "also called Mouse", "T1 sequence (looked up)": "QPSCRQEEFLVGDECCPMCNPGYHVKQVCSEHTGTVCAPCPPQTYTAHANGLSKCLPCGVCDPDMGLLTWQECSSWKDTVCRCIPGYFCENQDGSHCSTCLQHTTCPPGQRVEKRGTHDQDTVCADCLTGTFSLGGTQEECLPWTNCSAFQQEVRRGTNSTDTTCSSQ", "experiment": "ELISA", "values": [{"binder": "B1", "ELISA signal": 0.046}, {"binder": "B2", "ELISA signal": 0.046}, {"binder": "B3", "ELISA signal": 0.043}, {"binder": "B4", "ELISA signal": 0.045}, {"binder": "B5", "ELISA signal": 0.048}]}, {"molecular_target": "T2, human HVEM (human, UniProt Q92956 39-202, limits assumed)", "T2 sequence (looked up)": "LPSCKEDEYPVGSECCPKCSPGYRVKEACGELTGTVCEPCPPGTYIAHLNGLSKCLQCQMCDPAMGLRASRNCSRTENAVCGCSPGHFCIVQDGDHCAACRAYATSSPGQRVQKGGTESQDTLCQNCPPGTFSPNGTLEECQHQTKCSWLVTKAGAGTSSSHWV", "experiment": "ELISA", "values": [{"binder": "B1", "ELISA signal": 3.08}, {"binder": "B2", "ELISA signal": 3.26}, {"binder": "B3", "ELISA signal": 3.22}, {"binder": "B4", "ELISA signal": 3.36}, {"binder": "B5", "ELISA signal": 3.07}]}, {"molecular_target": "T3, cynomolgus monkey HVEM (cynomolgus monkey, UniProt A0A2K5W0R1 39-203)", "T3 sequence": "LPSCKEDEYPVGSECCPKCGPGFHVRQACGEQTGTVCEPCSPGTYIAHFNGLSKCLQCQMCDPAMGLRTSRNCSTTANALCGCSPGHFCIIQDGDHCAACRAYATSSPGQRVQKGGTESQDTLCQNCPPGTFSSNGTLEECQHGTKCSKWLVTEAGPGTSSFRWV", "experiment": "ELISA", "values": [{"binder": "B1", "ELISA signal": 0.063}, {"binder": "B2", "ELISA signal": 0.079}, {"binder": "B3", "ELISA signal": 0.058}, {"binder": "B4", "ELISA signal": 0.062}, {"binder": "B5", "ELISA signal": 2.26}]}, {"molecular_target": "T4, Human HEVM recombinant protein (Sino Biological, 10334-H02H) (human, UniProt Q92956 39-202)", "T4 construct": "construct known only by catalogue number; also called HVEM; human HVEM", "T4 sequence (looked up)": "T2 sequence (looked up)", "experiment": "competition ELISA, competitor BTLA-His", "outline": "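Competitor (BTLA-His or LIGHT-His, 400 nM) premixed with 7-point 3-fold antibody dilutions, final top 100 nM or 325 nM respectively, then added 1 Hr at RT to plate-coated HVEM (4 ug/ml). His-tag signal read at 450 nm after HRP/TMB; IC50 derived.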", "units": {"IC50": "nM"}, "values": [{"binder": "B1", "IC50": 1.5}, {"binder": "B2", "IC50": 0.8}, {"binder": "B3", "IC50": 1.1}, {"binder": "B4", "IC50": 1.6}, {"binder": "B5", "IC50": 1.8}]}, {"molecular_target": "T4, Human HEVM recombinant protein (Sino …)", "experiment": "competition ELISA, competitor LIGHT-His", "description": "The competitive activity of HVEM antibody to BTLA or LIGHT was evaluated with ELISA-based competitive assay. Briefly Human HEVM recombinant protein (Sino Biological, 10334-H02H, 4 ug/ml, 100 ul/well) was coated to ELISA plate (Thermo Scientific, 469949, 4C overnight). A pre-mixture of HVEM antibody clone with seral dilution and 400 nM BTLA-His (R&D systems, 9235-BT-050) or LIGHT-His (SinoBiological, 10386-H07H) recombinant protein was made and added to the ELISA plate after blocking with 3% BSA (200 ul/well, RT 2 Hr) for 1 Hr at RT. The serial dilutions of HVEM antibody clone involve 7 different concentrations, with a 3-fold dilution performed start from 100 nM for BTLA or 325 nM for LIGHT competitive assay. The concentration was the final concentration. Plate was washed with PBST; diluted HRP-anti-His (Biolegend, 652504, 1:1000) with PBS containing 5% FBS was added 100 ul per well for 1 Hr at RT. TMB substrate (KPL, 52-00-00) 100 ul per well after washing and incubate at room temperature for 15 minutes; then stop the development by adding 100 ul stop solution (KPL, 50-85-06). Plate was read at 450 nm. The IC50 was calculated using GraphPad Prism software (GraphPad Software, Inc. San Diego, CA, USA).", "units": {"IC50": "nM"}, "values": [{"binder": "B1", "IC50": 14.5}, {"binder": "B2", "IC50": 18.7}, {"binder": "B3", "IC50": 15.3}, {"binder": "B4", "IC50": 252}, {"binder": "B5", "IC50": 37.3}]}, {"molecular_target": "T5, His-tagged human HVEM (human, UniProt Q92956 39-202, limits assumed)", "T5 construct": "Analyte of the BLI assay, 200 nM in PBS; not shown: His tag", "T5 sequence (looked up)": "T2 sequence (looked up)", "experiment": "BLI OctetRed96, mAb captured, 200 nM His-HVEM", "outline": "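Kinetics (kon, koff, KD) were fitted from association in 200 nM His-HVEM in PBS and dissociation in PBS buffer. The mouse antibodies had been captured directly from culture supernatant onto anti-mouse IgG Fc sensors.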", "units": {"Kd": "nM", "koff": "s⁻¹", "kon": "M⁻¹ s⁻¹"}, "values": [{"binder": "B1", "Kd": 4.95, "koff": 0.0023, "kon": 466000}, {"binder": "B2", "Kd": 18.7, "koff": 0.0107, "kon": 571000}, {"binder": "B3", "Kd": 3.92, "koff": 0.00148, "kon": 378000}, {"binder": "B4", "Kd": 11.7, "koff": 0.0197, "kon": "1.69e+06"}, {"binder": "B5", "Kd": 7.09, "koff": 0.00115, "kon": 162000}]}]}
